# According to patent publication US20080032927A1 (published 2008):
# Like-named read-outs stand apart in the source and are kept apart here.
# B1: XomID110 (other)
# chain: MTKAFSSVEWLAQSSRRSHREQPSKVDQRYSPYPSPSLPSWNSDVSPSSWNSQLSPDPDSAQVSPCPASAQVSPYSSDSEISLYSHEEEASFYGMDLNTSSSPGDNGLLHSEMVSVPDNIPRASSDEDAAYHPAQFFGVYGYAQQPTPVFQHAVQHPYPGYNPLMETLPGTMPYTMHPPAMDSMTPFNSQPFQMLYLPQQHLGQPLTYQEERPFVR
# notes: Internal deletion mutant of Xom lacking aa 131-240, which includes the homeodomain; also called XomID110 (fusion of aa 1-130 and aa 241-326)
# B2: XomCD85 (protein)
# chain: MTKAFSSVEWLAQSSRRSHREQPSKVDQRYSPYPSPSLPSWNSDVSPSSWNSQLSPDPDSAQVSPCPASAQVSPYSSDSEISLYSHEEEASFYGMDLNTSSSPGDNGLLHSEMVSVPDNIPRASSDEDAAKSAYSTSTDSGYESETSCSSSTAPEGDAISLSPNDTSDEEGKMGRRLRTAFTSDQISTLEKTFQKHRYLGASERQKLAAKLQLSEVQIKTWFQNRRMKYKREIQDGRPDSY
# Key:
# [1] = target: LEF1/TCF-transcriptional factors; experiment: cell-based or functional assay
# TCF4 = target: T1, TCF4 (UniProt Q9NQB0 1-619, limits assumed); experiment: co-immunoprecipitation with anti-TCF4 beads
# T1 construct: Endogenous protein of HCT116 cells; also called endogenous TCF4
# Experimental: Co-immunoprecipitation-The affinity-protein G beads were prepared by mixing 20 μl of protein G plus-Agarose beads (Santa Cruz Biotechnology) with 1 μg of corresponding antibody. A total of 2×10⁶ of cells were lysed with 1× cells lysis buffer (Promega) containing 1× protease inhibitor reagent (Roche), incubated on ice for 30 minutes, sonicated briefly, and centrifuged at 12,000 g for 5 minutes at 4° C. The supernatants were further cleaned with 20 μl of untreated protein G plus-Agarose beads and 2 μg of pre-immune serum for 2 hours at 4° C. The supernatants were then mixed with 20 μl of prelabeled protein G plus-Agarose beads at 4° C. overnight. The beads were washed four times with PBS plus 0.2% NP40.
# Xom binds to LEF1/TCF factors in vivo and in vitro-Binding of LEF1/TCFs to the promoter of TOPflash is required for the activation of the reporter construct; thus, the finding that expression of Xom activates TOPflash but not FOPflash raised the possibility that Xom activates the TOPflash reporter through interaction with LEF1/TCFs. This hypothesis was tested by determining whether Xom physically interacts with LEF1/TCFs. Co-immunoprecipitation experiments was carried out in HCT116 cells transiently transfected with mye-Xom. […] The in vivo association between Xom and TCF4 appears to be strong and could not be dissociated with 300 mM NaCl and 0.1% NP40. […]
# [2] = target: LEF1/TCF-transcriptional factors; experiment: cell-based or functional assay; remark: listed apart in the source
# T1 sequence (Q9NQB0 whole entry): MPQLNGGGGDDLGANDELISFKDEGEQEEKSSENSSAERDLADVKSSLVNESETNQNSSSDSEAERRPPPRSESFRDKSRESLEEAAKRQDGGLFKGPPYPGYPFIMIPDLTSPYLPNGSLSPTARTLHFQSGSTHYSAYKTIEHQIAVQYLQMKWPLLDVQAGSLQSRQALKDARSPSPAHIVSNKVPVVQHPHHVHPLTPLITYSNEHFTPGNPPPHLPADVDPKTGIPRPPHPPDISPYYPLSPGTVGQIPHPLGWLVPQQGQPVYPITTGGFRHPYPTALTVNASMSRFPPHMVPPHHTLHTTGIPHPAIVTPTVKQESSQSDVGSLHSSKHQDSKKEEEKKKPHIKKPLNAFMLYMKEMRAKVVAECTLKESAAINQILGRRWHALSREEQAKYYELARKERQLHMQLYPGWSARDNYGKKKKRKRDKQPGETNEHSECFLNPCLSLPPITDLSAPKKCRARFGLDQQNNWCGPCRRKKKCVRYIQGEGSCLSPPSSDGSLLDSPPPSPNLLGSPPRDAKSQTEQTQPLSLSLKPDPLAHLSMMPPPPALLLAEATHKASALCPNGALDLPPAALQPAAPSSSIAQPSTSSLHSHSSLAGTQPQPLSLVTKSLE
molecule,measurement,setting,value
Xom,TOPflash reporter in 293T cells,[1],10 fold
same,TOPflash reporter transcription in Xenopus embryos,[1],7 fold
B1,binding result,TCF4,no binding
B2,TOPflash reporter in 293T cells,[2],10 fold
